Molecular target: the molecule itself
Assay: SEC; analytical gel filtration on Superdex 200 Increase 10/300 GL; 100 uL of purified protein at 3.9 mg/mL; mobile phase 50 mM Tris-HCl pH 8.0, 0.15 mM NaCl, 10% glycerol, 0.3 mL/min; elution volume compared to a calibration curve of proteins of known molecular weight

B1: Nit_(phym), nitrilase from Paraburkholderia phymatum DSM 17167 (enzyme, UniProt B2JQY2 1-340, looked up)
chain: MSDQRVIRAAAVQIAPDFERPGGTLDRVCAAIDEAASKGVQLIVFPETFVPYYPYFSFVRPPVASGADHMRLYEQAVVVPGPVTHAVSERARRHAMVVVLGVNERDHGSLYNTQLVFDIDGCQVLKRRKITPTFHERMIWGQGDAAGLKVARTGIARVGALACWEHYNPLARYALMTQHEEIHCSQFPGSLVGPIFAEQIEVTIRHHALESGCFVVNSTGWLSDAQIESVTTDPKLQKALRGGCMTAIVSPEGQHLAEPLREGEGMVVADLDMALITKRKRMMDSVGHYARPELLSLAINDRPAMPVVPMSMSFERAGADVAPEIISGGQDECQHEPVAG
notes: nitrilase Nit_(phym) (NIT188) from Paraburkholderia phymatum DSM 17167, Uniprot ID B2JQY2; subunit with an apparent molecular mass of 37 kDa on SDS-PAGE; also called NIT188
stoichiometry N: > 18 subunits
